Source: US20230167200A1 (published 2023)

How the values were obtained:
[1] = target: T1, human PD-L2 expressed on CHO cells (CHO-hPD-L2 cells) (human, UniProt Q9BQ51 20-273); test: flow cytometry cell binding
T1 chain: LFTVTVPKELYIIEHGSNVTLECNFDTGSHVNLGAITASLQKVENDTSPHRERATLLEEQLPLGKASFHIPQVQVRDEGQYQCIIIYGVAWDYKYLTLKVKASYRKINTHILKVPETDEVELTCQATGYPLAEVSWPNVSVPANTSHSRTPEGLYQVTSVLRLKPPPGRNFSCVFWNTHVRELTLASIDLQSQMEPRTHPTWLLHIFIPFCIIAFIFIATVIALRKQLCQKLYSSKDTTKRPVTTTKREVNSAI

[2] = target: human PD-L1 expressed on CHO cells (CHO-hPD-L1 cells) (human, UniProt Q9NZQ7 19-290); test: flow cytometry cell binding
human PD-L1 expressed on CHO cells (CHO-hPD-L1 cells), sequence (Q9NZQ7 19-290): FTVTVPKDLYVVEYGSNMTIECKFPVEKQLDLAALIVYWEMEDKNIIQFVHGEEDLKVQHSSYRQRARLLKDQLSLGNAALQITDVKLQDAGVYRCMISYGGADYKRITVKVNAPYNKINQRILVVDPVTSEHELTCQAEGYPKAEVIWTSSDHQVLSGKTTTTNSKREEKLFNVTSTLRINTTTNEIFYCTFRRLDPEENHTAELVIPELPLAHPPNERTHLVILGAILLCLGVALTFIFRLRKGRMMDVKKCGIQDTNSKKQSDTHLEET

B1: anti-PD-L1/PD-L2 bispecific antibody Fc fusion protein Bi-203-204 (bispecific antibody, V domains shown)
V domain 1: QVQLVESGGGLVKPGGSLRLSCAASGHTFIIYAIGWFRQAPGKGLEFVATINWSGSMTNYADSVKGRFTISRDNAKNTVYLQMNSLKPDDTAVYYCAAYVGATISTAHSRYDYWGQGTLVTVSS
V domain 2: EVQLVESGGGLVQPGGSLRLSCAASGRTFSSMTIGWFRQAPGKGLEFVSGIGWTSGLTVYADSVKGRFTISRDNAKNSMYLQMNSLRAEDTAVYYCAADSMNRGQFDYWGQGTLVTVSS
What does the source list for B1?
EC50 [1]: 1.25 nM; EC50 [2]: 3.79 nM
